In article PMC5536852 one finds Ki data, which are given here for one substance.

For experiment [1], the target named is PP1γ, active form (His-tagged protein phosphatase 1 gamma) (UniProt P36873). Briefly: enzyme inhibition kinetics.
The target is the same in experiment [2]. The experiment in a line: enzyme inhibition kinetics. The source holds these as a separate data set.

pKi: −log10 of the molar value. Where two headings read alike, the source gives them in different places.

Usually pKi stands for the negative decadic logarithm of the Ki, by convention in mol/L.

Chain of UniProt P36873 (P36873 whole entry): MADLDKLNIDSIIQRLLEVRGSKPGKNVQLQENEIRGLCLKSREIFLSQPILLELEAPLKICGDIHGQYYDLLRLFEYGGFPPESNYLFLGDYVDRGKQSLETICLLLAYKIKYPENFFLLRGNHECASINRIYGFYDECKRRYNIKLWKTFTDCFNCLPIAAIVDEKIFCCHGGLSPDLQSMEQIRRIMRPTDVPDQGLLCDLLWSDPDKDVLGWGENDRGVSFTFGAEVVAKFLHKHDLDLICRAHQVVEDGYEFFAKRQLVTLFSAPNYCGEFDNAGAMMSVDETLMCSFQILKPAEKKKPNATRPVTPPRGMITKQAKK

With “His-tagged RRM1 (isolated RNA recognition motif 1 of SRSF1) (domain or fragment)”, the results for the negative-log Ki (pKi) in experiment [1] and in experiment [2] were 6.46 and 6.39, respectively.
